Laboratory results as given in PMC3515998.

Target: Gαi/o proteins (human (endogenous in HEK293T)) (UniProt P63096)
Sequence of UniProt P63096 (P63096 whole entry): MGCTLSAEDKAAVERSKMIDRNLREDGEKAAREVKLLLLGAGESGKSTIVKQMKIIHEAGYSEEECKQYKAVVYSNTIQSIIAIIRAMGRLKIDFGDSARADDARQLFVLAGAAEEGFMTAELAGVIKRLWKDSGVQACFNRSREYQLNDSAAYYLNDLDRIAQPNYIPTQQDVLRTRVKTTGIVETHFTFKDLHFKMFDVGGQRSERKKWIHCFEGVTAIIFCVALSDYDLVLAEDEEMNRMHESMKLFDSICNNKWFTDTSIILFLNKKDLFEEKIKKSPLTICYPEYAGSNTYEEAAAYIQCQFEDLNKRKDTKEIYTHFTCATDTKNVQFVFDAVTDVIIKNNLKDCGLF

Row | EC50 of MCH for stimulation of [35S]GTPγS binding to membranes of transfected HEK293T cells (0.001-1000 nM MCH, 30 min, 30°C) [nM] | basal [35S]GTPγS binding to membranes (no MCH), percent of Flag-MCHR1 [%] | maximal [35S]GTPγS binding to membranes with 1 μM MCH, percent of basal | Substance
1 | 0.47 | 97.6 | 191 % of basal | F318K mutant of Flag-tagged rat MCHR1 (from UniProt P97639 1-353) (receptor)
2 | 0.23 |  | 208 % of basal | Flag-MCHR1 (rat melanin-concentrating hormone receptor 1 with a Flag epitope tag before the first methionine) (from UniProt P97639 1-353)
